The numbers were not newly measured in publication PMC6175838, which cites them from elsewhere.

One data set has as its target claudin-4 (Homo sapiens) (UniProt O14493). Description: given as Ka.
Another data set has as its target claudin-3 (Homo sapiens) (UniProt O15551). As to the kind of experiment: given as Ka.
Sequence of UniProt O15551 (O15551 whole entry): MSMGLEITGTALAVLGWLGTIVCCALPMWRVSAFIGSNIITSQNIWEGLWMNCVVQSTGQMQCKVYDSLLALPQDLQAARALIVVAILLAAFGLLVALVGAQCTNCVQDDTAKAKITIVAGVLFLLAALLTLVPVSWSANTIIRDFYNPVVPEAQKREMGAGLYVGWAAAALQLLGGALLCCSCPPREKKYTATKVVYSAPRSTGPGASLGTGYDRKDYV

Sequence of UniProt O14493 (O14493 whole entry): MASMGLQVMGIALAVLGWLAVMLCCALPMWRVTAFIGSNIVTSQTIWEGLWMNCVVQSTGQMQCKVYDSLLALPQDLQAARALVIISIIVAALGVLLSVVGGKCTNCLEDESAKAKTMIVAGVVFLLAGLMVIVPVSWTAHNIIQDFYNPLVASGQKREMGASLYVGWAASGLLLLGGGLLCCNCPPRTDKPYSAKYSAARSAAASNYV

In the case of “C-CPE C-terminal domain (from UniProt P01558)”, the Kd with claudin-4 (Homo sapiens) and with claudin-3 (Homo sapiens) was 10 nM in each case.

One may read the Kd as the equilibrium constant for the complex coming apart.
